# What was measured:
# [1] = target: T1, 4H2586-bN; experiment: two-hybrid library CCNG1;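 note: natural log of median RNA to DNA barcode read ratio; higher means stronger binding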
# T1 chain: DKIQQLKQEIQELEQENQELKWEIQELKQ
# [2] = target: T2, 4H2627-bN; experiment: two-hybrid library CCNG1;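 note: natural log of median RNA to DNA barcode read ratio; higher means stronger binding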
# T2 chain: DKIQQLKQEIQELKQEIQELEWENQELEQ
# [3] = target: T3, 4H2673-bN; experiment: two-hybrid library CCNG1;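 note: natural log of median RNA to DNA barcode read ratio; higher means stronger binding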
# T3 chain: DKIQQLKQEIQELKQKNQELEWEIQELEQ
# [4] = target: T4, 4H2702-bN; experiment: two-hybrid library CCNG1;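 note: natural log of median RNA to DNA barcode read ratio; higher means stronger binding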
# T4 chain: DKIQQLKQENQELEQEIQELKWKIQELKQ
# [5] = target: T5, 4H3010-bN; experiment: two-hybrid library CCNG1;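 note: natural log of median RNA to DNA barcode read ratio; higher means stronger binding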
# T5 chain: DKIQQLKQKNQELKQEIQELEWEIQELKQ
# [6] = target: T6, 4H3112-bN; experiment: two-hybrid library CCNG1;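 note: natural log of median RNA to DNA barcode read ratio; higher means stronger binding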
# T6 chain: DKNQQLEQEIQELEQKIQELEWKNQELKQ
# [7] = target: T7, 4H3427-bN; experiment: two-hybrid library CCNG1
# T7 chain: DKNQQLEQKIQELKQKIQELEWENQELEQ
# [8] = target: T8, 4H346-bN; experiment: two-hybrid library CCNG1
# T8 chain: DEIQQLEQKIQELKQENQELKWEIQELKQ
# [9] = target: T9, 4H349-bA; experiment: two-hybrid library CCNG1
# T9 chain: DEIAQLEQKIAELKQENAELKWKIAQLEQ
# [10] = target: T10, 4H3926-bN; experiment: two-hybrid library CCNG1
# T10 chain: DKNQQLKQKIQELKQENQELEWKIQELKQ
# [11] = target: T11, 4H4073-bN; experiment: two-hybrid library CCNG1
# T11 chain: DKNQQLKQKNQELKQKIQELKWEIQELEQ
# [12] = target: T12, 4H457-bN; experiment: two-hybrid library CCNG1
# T12 chain: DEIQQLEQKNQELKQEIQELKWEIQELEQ
# [13] = target: T13, 4H575-bN; experiment: two-hybrid library CCNG1
# T13 chain: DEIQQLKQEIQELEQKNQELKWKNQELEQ
# [14] = target: T14, 4H683-bN; experiment: two-hybrid library CCNG1
# T14 chain: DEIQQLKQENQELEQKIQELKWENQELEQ
# [15] = target: T15, 4H754-bN; experiment: two-hybrid library CCNG1
# T15 chain: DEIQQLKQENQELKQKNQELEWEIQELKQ
# [16] = target: T16, 4H780-bN; experiment: two-hybrid library CCNG1
# T16 chain: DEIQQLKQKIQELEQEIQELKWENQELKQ
# [17] = target: T17, 4H797-bN; experiment: two-hybrid library CCNG1
# T17 chain: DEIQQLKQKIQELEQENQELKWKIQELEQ
# [18] = target: T18, 4H855-bN; experiment: two-hybrid library CCNG1
# T18 chain: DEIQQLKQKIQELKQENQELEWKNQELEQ
# [19] = target: T19, 4H918-bN; experiment: two-hybrid library CCNG1
# T19 chain: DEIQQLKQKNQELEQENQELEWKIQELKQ
# [20] = target: T20, 4H953-bN; experiment: two-hybrid library CCNG1
# T20 chain: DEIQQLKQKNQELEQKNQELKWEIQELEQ
# [21] = target: T21, 4H968-bN; experiment: two-hybrid library CCNG1
# T21 chain: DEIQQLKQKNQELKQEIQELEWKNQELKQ
# [22] = target: T22, 4H3628-bH; experiment: two-hybrid library CCNG1
# T22 chain: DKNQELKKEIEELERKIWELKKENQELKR
# [23] = target: T23, O16; experiment: two-hybrid library CC0; conditions: mean of both orientations
# T23 chain: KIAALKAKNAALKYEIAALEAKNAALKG
# [24] = target: T24, O2; experiment: two-hybrid library CC0; conditions: mean of both orientations
# T24 chain: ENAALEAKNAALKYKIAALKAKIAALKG
# [25] = target: T25, O3; experiment: two-hybrid library CC0; conditions: mean of both orientations
# T25 chain: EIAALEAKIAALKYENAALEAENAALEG
# [26] = target: T26, O4; experiment: two-hybrid library CC0; conditions: mean of both orientations
# T26 chain: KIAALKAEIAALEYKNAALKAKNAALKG
# [27] = target: T27, O5; experiment: two-hybrid library CC0; conditions: mean of both orientations
# T27 chain: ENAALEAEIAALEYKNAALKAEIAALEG
# [28] = target: T28, O6; experiment: two-hybrid library CC0; conditions: mean of both orientations
# T28 chain: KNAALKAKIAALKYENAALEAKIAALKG
# [29] = target: T29, O7; experiment: two-hybrid library CC0; conditions: mean of both orientations
# T29 chain: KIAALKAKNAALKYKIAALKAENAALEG
# [30] = target: T30, O8; experiment: two-hybrid library CC0; conditions: mean of both orientations
# T30 chain: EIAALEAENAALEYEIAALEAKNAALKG
# [31] = target: T31, O9; experiment: two-hybrid library CC0; conditions: mean of both orientations
# T31 chain: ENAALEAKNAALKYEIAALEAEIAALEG
# [32] = target: T32, 4H3189-bA; experiment: two-hybrid library CCNG1
# T32 chain: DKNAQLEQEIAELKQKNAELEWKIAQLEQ
# [33] = target: T33, 4H883-bH; experiment: two-hybrid library CCNG1
# T33 chain: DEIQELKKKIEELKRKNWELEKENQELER
Binder,interaction score [1],interaction score [2],interaction score [3],interaction score [4],interaction score [5],interaction score [6],interaction score [7],interaction score [8],interaction score [10],interaction score [11],interaction score [12],interaction score [13],interaction score [14],interaction score [15],interaction score [16],interaction score [17],interaction score [18],interaction score [19],interaction score [20],interaction score [21],further results
DENQQLKQKIQELEQKIQELEWKNQELEQ [4H1831-bN],-0.466,1.7,-0.269,-0.111,-0.741,-0.567,-0.445,0.142,-0.39,0.223,-1.9,-0.248,-2.14,-0.46,-1.02,-0.203,-0.282,-0.624,-0.677,-0.157,interaction score [9]: -1.73
DKIQQLKQEIQELEQENQELKWEIQELKQ [4H2586-bN],0.806,-0.115,-1.47,-0.448,0.0264,-1.32,0.526,1.97,0.209,-0.362,-0.912,-1.1,0.147,-1.88,-1.16,-0.469,-0.916,-1.12,-1.01,-1.31,interaction score [22]: 1.41
KIAALKAKNAALKYEIAALEAKNAALKG [O16],–,–,–,–,–,–,–,–,–,–,–,–,–,–,–,–,–,–,–,–,interaction score [23]: -2.76; interaction score [24]: -2.67; interaction score [25]: -2.69; interaction score [26]: -2.71; interaction score [27]: -2.68; interaction score [28]: -1.77; interaction score [29]: -2.48; interaction score [30]: 0.382; interaction score [31]: -2.65
DKIQQLKQEIQELKQEIQELEWENQELEQ [4H2627-bN],–,-1.18,-0.336,-0.837,-0.478,-0.418,-0.336,-1.49,-0.972,0.24,-1.44,0.336,-0.185,-1.21,-0.619,-2.2,-0.307,-0.935,-1.1,-0.499,interaction score [32]: -2.27; interaction score [33]: 0.737
